Assay results reported in the supplement of paper PMC10567573.

B1: MIA2 (parent)
chain: DMVSNIELPTRIHEEVYFEPSSSK

Variants of: B1
Experiment: protein stability index of a GFP-peptide fusion (GPS, HEK-293T) (PSI 1-6); higher = more stable
Conditions: c terminus: a fixed tail appended
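Also: lentivirally expressed fusions sorted by FACS into six bins by GFP to DsRed ratio, PSI derived from sequencing read proportions per bin multiplied by bin number.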

Protein stability index of substitutions, site by site:
H13: E 4.44; M 3.02; S 3.33; W 3.15; G 4.05; Q 3.84; P 4.32; T 3.02; L 3.99; R 3.8; I 3.42; N 4.19; V 3.62; K 3.64; A 4; Y 3.57; F 3.81; C 3.37; D 3.59
V16: H 3.55; P 4.12; M 3.46; F 3.87; E 5.02; L 4.09; C 4.33; T 4.05; G 4.16; R 3.17; D 4.77; S 4.02; A 4.26; W 3.73; Y 3.49; K 3.89; N 4.47; Q 4.02; I 3.87
T10: P 4; I 3.94; V 3.65; R 3.63; A 4.23; D 4.74; M 3.81; G 3.83; C 1.67; S 4.13; K 3.4; Q 4.44; Y 3.83; L 4.11; H 4.47; F 3.86; E 4.01; W 3.27; N 3.61
E14: M 2.58; L 2.04; Q 3.43; W 2.88; T 3.07; F 2.46; R 2.98; G 3.28; D 3.59; H 3.28; Y 1.86; N 3.82; A 3.51; S 3.29; P 3.16; C 1.91; K 3.36
E15: L 3.27; K 3.52; F 2.62; W 2.75; N 3.29; Q 3.44; V 2.6; P 2.96; G 3.84; H 3.63; D 4.45; A 3.35; C 2.97; S 3.54; Y 3.22; R 2.96; M 2.72; I 2.28; T 3.9
I12: D 4.79; F 3.57; H 3.42; M 3.6; Q 4.11; Y 3.87; T 3.98; N 3.69; A 4.18; K 3.64; V 4.25; S 4.51; E 4.33; R 3.06; W 3.59; P 3.86; G 4.39; L 3.89; C 3.22
Y17: H 4.29; T 4.28; R 5.01; K 4.27; W 4.21; D 4.41; A 3.67; P 4.97; C 4.52; G 4.47; E 4.95; M 3.73; S 4.06; Q 4.26; L 4.29; N 4.32; V 4.3; I 3.94; F 4.35
P9: W 2.98; T 3.69; S 3.31; Y 3.41; N 4.06; R 3.6; Q 4.08; V 2.94
F18: C 3.59; A 4.12; H 4.64; I 4.52; E 4.68; K 3.51; D 5.29; G 4.63; L 4.5
R11: M 4.16; K 3.77; H 3.43; D 4.49; V 4.14; G 4.86; C 3.62; I 3.58; F 3.42; N 4.39; Q 4.42; A 4.7; Y 3.26; L 3.94; W 3.52; E 4.5; P 4.09; T 4.27; S 4.07
